Experiment: soluble on expression in E. coli; label from the status in PepcDB or PDB records

| Sequence | soluble on expression in E. coli |
| --- | --- |
| TVNQAKIFAQTTKMLEFAKQLLETDDFSTLREAYYVSKNWGEARFDDQQASNNVIEDLEAALGVLREHLGFIPEEDGSSVVGPLKIIEETPEGELVVDCTKLGTGAYNIPNDVTKLNLETDADFILAIETSGMFARLNAERFWDKHNCILVSLKGVPARATRRFIKRLHEEHDLPVLVFTDGDPYGYLNIYRTLKVGSGKAIHLADKLSIPAARLIGVTPQDIIDYDLPTHPLKEQDIKRIKDGLKNDDFVRSFPEWQKALKQMLDMGVRAEQQSLAKYGLKYVVNTYLPEKIKDESTWLP | soluble |
| MGSDKIHHHHHHMTWRIVHIHQSEKMRLKLDNLVIKKQGDEFTIPLSDISIIVAEGGDTVVTLRLLSALSKYNIALIVCDNHHLPTGIYHSQNGHFRAYKKLQAQLSWAPLQKDKLWQIIIYFKITNQQDVLAMQEKSLSTIQLLSDYREHIELGDRTNREGHAAKVYFNELFGKQFVRLTQQETDAVNAGLNYGYTIFRAQMARIIAGYGLNALIGIFHKNEYNQFNLADDLMEPFRQIVDVWVYMNLREADFLTYQHRLELTNLLNAKIRYGKENCSVTVAMDKFVKGFIRCIEDKDTNQFFCPVVSSLEMEKL | not soluble |
| MAMTKLDATLAMLKELTDARGIAGNEREPREVMKKYIEPFADELSTDNLGSLVAKKVGEENGPKIMVAGHLDEVGFMITQIDDKGFLRFQTVGGWWSQVMLAQRVTIVTRKGDVTGVIGSKPPHILPPEARKKPVEIKDMFIDIGASSQEEAMEWGVRPGDQVVPYFEFQVMKNEKMLLAKAWDNRIGCAIAIDVLKQLKDEKHPNVVYGVGTVQEEVGLRGAKTSANYIKPDIAFAVDVGIAGDTPGVTSKEAQSKMGDGPQIILYDASVIGHTGLRDFVVDVADELQIPYQYDSVAGGGTDAGAIHIAVNGIPSMAITIATRYIHSHAAMLHRDDYENAVKLIVEVIKRLDKEAVHNITFN | not soluble |
| MSLHLARVDRQWPRPLQPLGNTCSMMLIKQFPDISLNDTLFVFALEAEAGDVFTEVNTVFTGIGKVNAAIALTKAIATRRPKLIVNLGSAGSQRHGKGEIVCCNRFVQRDMDVTALGFARYETPLSDTPVVLEHGAAIPGLAVETCGSGDSFEINHGDAPYDVVDMEAYVLALIARGEGIPFVCLKYISDDAGSEAAGDWAVQVHLAAEAFKRVLFSQAEGHHHHHH | soluble |
| MAILAARIAVSNLHKETKKVFSDVMEDLYNYINPHNGKHSPMVAKSTLDIVLANKDRLNSAIIYDRDFSYNYFGFKTLERSYLLKINGKVAERPQHMLMRVSVGIHKEDIDAAIETYNLLSERWFTHASPTLFNAGTNRPQLSSCFLLSMKDDSIEGIYDTLKQCALISKSAGGIGVAVSCIRATGSYIAGTNGNSNGLVPMLRVYNNTARYVDQGGNKRPGAFAIYLEPWHLDIFEFLDLKKNTGKEEQRARDLFFALWIPDLFMKRVETNQDWSLMCPNECPGLDEVWGEEFEKLYASYEKQGRVRKVVKAQQLWYAIIESQTETGTPYMLYKDSCNRKSNQQNLGTIKCSNLCTEIVEYTSKDEVAVCNLASLALNMYVTSEHTYDFKKLAEVTKVVVRNLNKIIDINYYPVPEACLSNKRHRPIGIGVQGLADAFILMRYPFESAEAQLLNKQIFETIYYGALEASCDLAKEQGPYETYEGSPVSKGILQYDMWNVTPTDLWDWKVLKEKIAKYGIRNSLLIAPMPTASTAQILGNNESIEPYTSNIYTRRVLSGEFQIVNPHLLKDLTERGLWHEEMKNQIIACNGSIQSIPEIPDDLKQLYKTVWEISQKTVLKMAAERGAFIDQSQSLNIHIAEPNYGKLTSMHFYGWKQGLKTGMYYLRTRAHHHHHH | soluble |
| MGSDKIHHHHHHMKRSIEDTPVVFLGAGNLATNLAKALYRKGFRIMQVYSRTEESARTLANEVEAEYITDLKDVSNEARLYIISLKDAAFVELLPQITDGKQHALLVHTAGSIPMNIWEGHAERYGVFYPMQTFSKQREVDFREVPFFIEAKRPEDTELLKAVAGTLSDKVYEADSEQRRSLHLAAVFTCNFTNHMYALAAELLEKYHLPFDVMLPLIDETARKVHELAPRDAQTGPAVRYDENVMNKHLSMLADSQALQEIYKLMSKSIHEHHQL | not soluble |

Source: the DeepSol protein solubility set
